From patent US20190367619A1 (ARGENX, published 2019)
Residue numbers refer to the chain shown, from its start.

B1: 6A05 mouse IgG1 (antibody, V domains shown)
VH: EVQLVESGGGLVQPGGSLRLSCAASGFTFSSYAMSWVRQAPGKGLEWVSAINSGGGWTSYVDSVKGRFTISRDNAKNTLYLQMDSLKPEDTAVYYCTKYSGPELNTQYGMDYWGKGTLVTVSS
VL: NFMLTQPSAVSVSLGQTARITCQGGNFGSYYASWYQQKPGQAPVLVIYRDSGRPSGIPERFSGSSSGDTATLTISGAQAEDEADYYCQSGSSSDNTVFGGGTHLTVL
notes: also called 6A05 mIgG1
B2: 10D02 mouse IgG1 (antibody, V domains shown)
VH: EVQLVESGGGLVQPGGSLRVSCAASGFTFSSYYMSWVRQAPGKGLEWVSGIVTGGGRTHYTDSVKGRFTITRDNAKNTLYLQMNSLRPEDTALYYCARVNGVVTNYDYWGQGTQVTVSS
VL: QAVLTQPPSVSGSPGKTVTISCAGTSSDVGYGNYVSWYQQLPGMAPKLLIYDVNKRASGITDRFSGSKSGNTASLTISGLQSEDEADYFCASYRSPNNVVFGQGTHLTVL
notes: VH and VL cloned in frame with mouse IgG1 constant domains; also called 10D02 mIgG1
B3: 11F12 mouse IgG1 (antibody, V domains shown)
VH: QVQLQESGGGLVQPGGSLRLSCAASGFTFSTNYMNWVRQAPGKGLEWVSGITSGGGRTYYADSVKGRFTISRDNAKNTLYLQMNSLKPEDTALYYCARTDHAWLDAWGQGTLVTVSS
VL: HSAVTQPPSVSGTLGKTVTISCAGTSSDVGYGNYVSWYQHLPGTAPKLLIYAVSTRASGVPDRFSGSKSGNTASLTISGLQSEDEGDYYCASYSVRNNVVFGGGTRLTVL
notes: VH and VL cloned in frame with mouse IgG1 constant domains; also called 11F12 mIgG1
B4: 10A06 mouse IgG1 (antibody, V domains shown)
VH: QVQLVESGGGLVQPGGSLRLSCAASGFTFGNYDMSWVRQAPGKGPEWVSDINSGGGSTYYADSVKGRFTISRDNAKNSLLLQMNSLKPEDTAVYYCATGYTGYYYWGQGTQVTVSS
VL: QTVVTQEPSLSVSPGGTVTLTCGLSSGSVTSSNYPAWYQQTPGQAPRALIYSINSRHSGVPDRFSGSISGNKAALTITGAQAEDEADYYCTLYMGTGSNNVVFGGGTHLTVL
notes: VH and VL cloned in frame with mouse IgG1 constant domains; also called 10A06 mIgG1

How the values were obtained:
[1] = target: T1, TEV-cleaved wild-type recombinant human galectin-10 (soluble, in Fab complexes, or as recombinant galectin-10 … (human, UniProt Q05315 1-142)); test: cell-based or functional assay
T1 sequence: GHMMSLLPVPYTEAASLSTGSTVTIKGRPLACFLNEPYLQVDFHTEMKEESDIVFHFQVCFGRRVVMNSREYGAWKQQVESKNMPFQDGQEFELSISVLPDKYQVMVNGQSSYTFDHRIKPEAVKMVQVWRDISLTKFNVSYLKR

[2] = target: T2, human galectin-10-His (recombinant human galectin-10 with TEV-cleavable N-terminal His-tag) (human); test: BLI tandem on galectin-10-His; competitor: saturating 6B06 mIgG1 (10 ug/mL)
T2 construct: SEC-MALLS: dimer in solution; also called Gal10-His; humanGal10-His
T2 chain: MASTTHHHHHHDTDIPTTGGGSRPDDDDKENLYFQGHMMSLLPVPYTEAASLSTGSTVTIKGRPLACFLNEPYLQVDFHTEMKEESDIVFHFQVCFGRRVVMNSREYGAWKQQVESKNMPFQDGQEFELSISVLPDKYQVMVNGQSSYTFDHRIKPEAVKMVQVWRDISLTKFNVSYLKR
Experimental: (§1) In order to identify the galectin-10 binding sites of the different clones, an epitope mapping method (TANDEM), using the BLI technology, was established. Briefly, the galectin-10-His was captured on anti-HIS 1K sensor tips, before incubation with an excess of one antibody (called the “saturating” antibody) then directly transferred to a solution containing the “competitor” antibody at a suboptimal concentration. If the “saturating” and the competitor antibody bind to the same binding sites, no binding of “competitor” will be detected (expressed in nm shift).

[3] = target: T2, human galectin-10-His (recombinant …); test: BLI tandem on galectin-10-His; isotype control as saturating antibody (10 ug/mL)
Experimental: as §1

[4] = target: T2, human galectin-10-His (recombinant …); test: ELISA, mouse IgG1 on coated galectin-10-His (0.2 ug/mL)
Experimental: In a similar setup to that used during the characterization of the scFv-human Fc molecules, the relative binding affinities of the 10 mouse IgG1 antibodies were analyzed by ELISA. A Maxisorp plate was coated overnight with 0.2 μg/mL of galectin-10-His. Then a serial dilution of each clone (from 100 nM, dilution 1/4, 12 points of dilutions) was incubated on coated galectin-10. After several washing steps, detection of the bound mouse IgG1 was carried out with an anti-mouse Fc-HRP antibody. Absorbance was measured at 450 nm (reference at 620 nm) with Tecan instrument. A mouse IgG1 isotype control was used as negative control. A polyclonal anti-galectin-10 antibody was used as positive control for the coating of galectin-10. The raw data (OD values) were plotted on GraphPad Prism 7.01. The EC50 values for each antibody, calculated with a non-linear regression (log(agonist) vs. response Variable slope (four parameters)), are reported in Table 7 below.

[5] = target: T2, human galectin-10-His (recombinant …); test: BLI tandem on galectin-10-His; competitor: saturating 6A08 mIgG1 (10 ug/mL)
Experimental: as §1

[6] = target: T2, human galectin-10-His (recombinant …); test: BLI tandem on galectin-10-His; competitor: saturating 1C09 mIgG1 (10 ug/mL)
Experimental: as §1

[7] = target: T2, human galectin-10-His (recombinant …); test: BLI tandem on galectin-10-His; competitor: saturating 6E10 mIgG1 (10 ug/mL)
Experimental: as §1

[8] = target: T2, human galectin-10-His (recombinant …); test: BLI tandem on galectin-10-His; competitor: saturating 2C07 mIgG1 (10 ug/mL)
Experimental: as §1

[9] = target: T2, human galectin-10-His (recombinant …); test: BLI tandem on galectin-10-His; competitor: saturating 6F06 mIgG1 (10 ug/mL)
Experimental: as §1

[10] = target: T2, human galectin-10-His (recombinant …); test: SPR Biacore T3000, mouse IgG1 captured by anti-mouse Fc, galectin-10-His as analyte
Experimental: The binding capacity of the mouse IgG1 antibodies to galectin-10 was analyzed on Biacore T3000. For this purpose, a capture approach was set up. A CM5 Chip was coated with polyclonal anti-mouse Fc at 8000 RU, then a fixed concentration of the mouse IgG1 antibody panel (1.5 μg/mL), diluted in HBS-EP pH7.4, was captured to reach a binding signal around 150 RU. Finally, a serial dilution of galectin-10-His (serial dilution, 1 over 2 from 5 μg/mL) diluted in HBS-EP pH7.4 was injected. Raw data were analyzed via BIA evaluation software with a blank subtraction (4-3). The kd/KD and Rmax of each mAb to galectin-10-His was determined using the Fit Kinetics simultaneous ka/kd/Binding with mass transfer/Local Rmax on BIA evaluation software.

[11] = target: T2, human galectin-10-His (recombinant …); test: BLI tandem on galectin-10-His; competitor: saturating 2F09 mIgG1 (10 ug/mL)
Experimental: as §1

[12] = target: T2, human galectin-10-His (recombinant …); test: BLI tandem on galectin-10-His; competitor: saturating 6A05 mIgG1 (10 ug/mL)
Experimental: as §1

[13] = target: T2, human galectin-10-His (recombinant …); test: BLI tandem on galectin-10-His; competitor: saturating 1D11 mIgG1 (10 ug/mL)
Experimental: as §1

[14] = target: T2, human galectin-10-His (recombinant …); test: BLI tandem on galectin-10-His; competitor: saturating 4E08 mIgG1 (10 ug/mL)
Experimental: as §1

[15] = target: T3, recombinant human galectin-10, TEV-cleaved (human, UniProt Q05315 1-142); test: cell-based or functional assay
T3 sequence: T1 sequence

[16] = target: T4, human galectin-10-His (human); test: ELISA, coated antigen 0.5 ug/mL
T4 construct: The last M of the tag may be Met1 of galectin-10; also called humanGal10-His; hGal10
T4 chain: T2 chain
Experimental: (§2) In a similar setup to that used during the characterization of the scFv-human Fc molecules, the relative binding properties of the 7 mouse IgG1 antibodies were analyzed by ELISA. A Maxisorp plate was coated overnight with 0.5 μg/mL of human or cynomolgus WGS or YRT isoform of galectin-10-His. Then a serial dilution of each clone (from 100 nM, dilution 1/4, 12 points of dilutions) was incubated on coated galectin-10. After several washing steps, detection of the bound mouse IgG1 was carried out with an anti-mouse Fc-HRP antibody (DAMPO, Jackson ImmunoResearch, Catalog 715-035-150). Absorbance was measured at 450 nm (reference at 620 nm) with Tecan instrument. The raw data (OD values) were plotted on GraphPad Prism 7.01. The EC50 values for each antibody, calculated with a non-linear regression (log(agonist) vs. response Variable slope (four parameters)), are shown in the table below. Antibody 1D11 from the previous panel was included for comparison.

[17] = target: T5, cynomolgus galectin-10-His, WGS isoform (cynomolgus); test: ELISA, coated antigen 0.5 ug/mL
T5 construct: also called cynoGal10-WGS; not shown: His tag
T5 chain: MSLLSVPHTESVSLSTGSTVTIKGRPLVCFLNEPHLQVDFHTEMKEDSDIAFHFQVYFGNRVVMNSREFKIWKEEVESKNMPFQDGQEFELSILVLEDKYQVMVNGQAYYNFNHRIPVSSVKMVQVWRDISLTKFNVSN
Experimental: as §2

[18] = target: T6, cynomolgus galectin-10-His, YRT isoform (cynomolgus); test: ELISA, coated antigen 0.5 ug/mL
T6 construct: also called cynoGal10-YRT; not shown: His tag
T6 chain: T5 chain with K23E, G24A, L31F, F69Y, K70R, I71T, S92R
Experimental: as §2

[19] = target: T4, human galectin-10-His; test: SPR Biacore T3000, mouse IgG1 captured
Experimental: (§3) The binding capacity of the mouse IgG1 antibody panel to galectin-10 was analysed on Biacore T3000. For this purpose, a capture approach was used, where a fixed concentration (1.5 μg/mL) of the mouse IgG1 clone was captured by polyclonal anti-mouse Fc antibodies immobilized on CM5 Chip to reach a binding signal around 150 RU. Then a serial dilution of human and cynomolgus WGS isoform of galectin-10-His (serial dilution, 1 over 2 from 5 μg/mL) diluted in HBS-EP pH7.4 was injected. Raw data were analysed via BIA evaluation software with a blank subtraction. The kd/KD and Rmax of each mAbs to galectin-10-His was determined using the Fit Kinetics simultaneous ka/kd/Binding with mass transfer/Local Rmax on BIA evaluation software.

[20] = target: T5, cynomolgus galectin-10-His, WGS isoform; test: SPR Biacore T3000, mouse IgG1 captured
Experimental: as §3

[21] = target: T3, recombinant human galectin-10, …; test: cell-based or functional assay; remark: listed apart in the source

Binder | 50% dissolution (min) of CLCs, antibody 50 uM [15] | 90% dissolution (min) of CLCs, antibody 50 uM [15] | EC50 [16] | OD values [16] | OD values [18] | Kd [19] | koff [19] | kon [19] | EC50 [18] | 50% crystal dissolution (min), 50 uM [21] | 90% crystal dissolution (min), 50 uM [21] | also measured
B1 |  |  |  |  |  |  |  |  |  |  |  | 100% Solubilization of CLC (Conc uM) [1]: 10.1 µM; binding signal (nm) [2]: 0 nm; binding signal (nm) [3]: 1.02 nm; Bmax [4]: 1.74 OD; EC50 [4]: 0.07 nM; binding signal (nm) [5]: 0 nm; binding signal (nm) [6]: 0 nm; binding signal (nm) [7]: -0.03 nm; binding signal (nm) [8]: 0.01 nm; binding signal (nm) [9]: 0.02 nm; Kd [10]: 0.6 nM; koff [10]: 0.00483 s⁻¹; binding signal (nm) [11]: 0.01 nm; binding signal (nm) [12]: 0.05 nm; binding signal (nm) [13]: 0.04 nm; binding signal (nm) [14]: -0.03 nm
B2 | 26.5 min | 58.6 min | 3.55 nM | 2.7 OD | 2.63 OD | 1.6 nM | 0.000865 s⁻¹ | 547000 M⁻¹ s⁻¹ |  |  |  | EC50 [17]: 0.14 nM; OD values [17]: 3.51 OD; Kd [20]: 1.9 nM; koff [20]: 0.000912 s⁻¹; kon [20]: 477000 M⁻¹ s⁻¹
B3 | 21.3 min | 42.6 min | 4.83 nM | 2.7 OD | 3.35 OD | 0.7 nM | 0.00224 s⁻¹ | 3.04e+06 M⁻¹ s⁻¹ | 0.21 nM | 65.4 min | > 120 min | 
B4 | 44.5 min | 86.6 min | 0.63 nM | 0.3 OD | 3.38 OD | 0.9 nM | 0.0101 s⁻¹ | 1.17e+07 M⁻¹ s⁻¹ | 0.06 nM | > 120 min | > 120 min | 
